Measurements: patent US20110124564A1, “NUCLEOLIN-BINDING PEPTIDES, NUCLEOLIN- BINDING LYTIC PEPTIDES, FUSION CONSTRUCTS AND METHODS OF MAKING AND USING SAME” (ESPERANCE PHARMACEUTICALS, INC., published 2011)
Like-named read-outs stand apart in the source and are kept apart here. Residues, ends and D or L forms follow the SMILES beside them.

Legend:
[1] = test system: MDA-MB-435S breast cancer cells; type: cell-based, human
Protocol: Twelve different fusion constructs were analyzed for anti-cancer activity in vitro against MDA-MB-435S breast cancer cells and for hemolytic activity in vitro to human red blood cells. Fusion constructs of the following sequence were tested:
The peptide conjugates were freshly dissolved in saline and added into cancer cell seeded multi-well plates at increasing concentrations of 0, 0.001, 0.01, 0.1, 1, 2, 5, 10 and 100 μM. Incubations were conducted for 4 h at 37° C. Cell viability was determined using formazan conversion assays (MTT assays). Controls were treated with USP saline or 0.1% TritonX-100™ as reference for 0 and 100% cell death, respectively. Cytotoxicity was evaluated as an IC50 value.

[2] = test system: human red blood cells; assay: Hemolytic activity; type: cell-based
Protocol: Hemolytic activity was studied by incubating the fusion constructs with human red blood cells at concentrations of 0.01, 0.1, 1, 10 and 50 μM for 2 hours. Saline and 0.1% Triton served as controls.
Hemolytic activity of the compounds was studied by incubating EP-301 and EP-302 with human red blood cells at concentrations of 0.01, 0.1, 1, 10 and 50 μM for 2 hours.

[3] = molecular target: T1, nucleolin expressed on the surface of human cancer cell lines (human, UniProt P19338); assay: cell-based or functional assay
[4] = molecular target: T1, nucleolin expressed on the surface of …; assay: cell-based or functional assay; remark: listed apart in the source
[5] = molecular target: T1, nucleolin expressed on the surface of …; assay: cell-based or functional assay; remark: listed apart in the source
[6] = molecular target: nucleolin on CHO (Hamster Ovary) cells (hamster)
[7] = molecular target: T1, nucleolin expressed on the surface of …; assay: cell-based or functional assay; remark: listed apart in the source

CC(C)C[C@H](NC(=O)[C@H](CCCNC(=N)N)NC(=O)[C@H](C)NC(=O)[C@H](CO)NC(=O)[C@H](CCCNC(=N)N)NC(=O)[C@H](CCCNC(=N)N)NC(=O)[C@H](CCC(N)=O)NC(=O)[C@H](CC(C)C)NC(=O)[C@H](CCCNC(=N)N)NC(=O)[C@H](CCCCN)NC(=O)[C@H](C)NC(=O)[C@H](Cc1ccccc1)NC(=O)[C@H](CCCCN)NC(=O)[C@H](CCCCN)NC(=O)[C@H](C)NC(=O)[C@H](Cc1ccccc1)NC(=O)[C@H](CCCCN)NC(=O)[C@H](C)NC(=O)[C@H](Cc1ccccc1)NC(=O)[C@H](CCCCN)NC(=O)[C@H](CCCCN)NC(=O)[C@H](C)NC(=O)[C@H](Cc1ccccc1)NC(=O)[C@H](CCCCN)NC(=O)[C@H](C)NC(=O)[C@H](Cc1ccccc1)NC(=O)[C@@H](N)CCCCN)C(=O)N[C@@H](CO)C(=O)N[C@@H](C)C(=O)N[C@@H](CCCCN)C(=O)O (H-KFAKFAKKFAKFAKKFAKRLQRRSARLSAK-OH)
IC50 ([1]; MDA-MB-435S, 4 h at 37° C, MTT, read-out: IC50): 2.2 ± 0.3 µM | HA50 ([2]; human red blood cells, 2 hours): 56 µM | HA50 ([2]; human red blood cells, 2 hours, listed as KFAKFAKKFAKFAICKFAKR19LQRRSARLSAK30): 56 ± 8.5 µM

CC(C)C[C@H](NC(=O)[C@H](CCCNC(=N)N)NC(=O)[C@H](C)NC(=O)[C@H](CO)NC(=O)[C@H](CCCNC(=N)N)NC(=O)[C@H](CCCNC(=N)N)NC(=O)[C@H](CCC(N)=O)NC(=O)[C@@H]1CCCN1C(=O)[C@H](C)NC(=O)[C@H](CCCNC(=N)N)NC(=O)[C@H](CCCCN)NC(=O)[C@H](CCCCN)NC(=O)[C@H](C)NC(=O)[C@H](Cc1ccccc1)NC(=O)[C@H](CCCCN)NC(=O)[C@H](CCCCN)NC(=O)[C@H](C)NC(=O)[C@H](Cc1ccccc1)NC(=O)[C@H](CCCCN)NC(=O)[C@H](C)NC(=O)[C@H](Cc1ccccc1)NC(=O)[C@H](CCCCN)NC(=O)[C@H](CCCCN)NC(=O)[C@H](C)NC(=O)[C@H](Cc1ccccc1)NC(=O)[C@H](CCCCN)NC(=O)[C@H](C)NC(=O)[C@H](Cc1ccccc1)NC(=O)[C@@H](N)CCCCN)C(=O)N[C@@H](CO)C(=O)N[C@@H](C)C(=O)N[C@@H](CCCCN)C(=O)O (H-KFAKFAKKFAKFAKKFAKKRAPQRRSARLSAK-OH; N-terminus and C-terminus assumed)
IC50 ([1]; 4 h): 7.3 µM | HA50 [2]: Not hemolytic

CC(C)C[C@H](NC(=O)[C@H](CCCNC(=N)N)NC(=O)[C@H](C)NC(=O)[C@H](CCCNC(=N)N)NC(=O)[C@H](CCCCN)NC(=O)[C@H](C)NC(=O)[C@H](Cc1ccccc1)NC(=O)[C@H](CCCCN)NC(=O)[C@H](CCCCN)NC(=O)[C@H](C)NC(=O)[C@H](Cc1ccccc1)NC(=O)[C@H](CCCCN)NC(=O)[C@H](C)NC(=O)[C@H](Cc1ccccc1)NC(=O)[C@H](CCCCN)NC(=O)[C@H](CCCCN)NC(=O)[C@H](C)NC(=O)[C@H](Cc1ccccc1)NC(=O)[C@H](CCCCN)NC(=O)[C@H](C)NC(=O)[C@H](Cc1ccccc1)NC(=O)[C@@H](N)CCCCN)C(=O)N[C@@H](CCC(N)=O)C(=O)N[C@@H](CCCNC(=N)N)C(=O)N[C@@H](CCCNC(=N)N)C(=O)N[C@@H](Cc1ccccc1)C(=O)O (H-KFAKFAKKFAKFAKKFAKRARLQRRF-OH)
IC50 ([1]; 4 h): 0.87 ± 0.003 µM | HA50 [2]: Not hemolytic

CC(C)C[C@H](NC(=O)[C@H](CCCNC(=N)N)NC(=O)[C@H](C)NC(=O)[C@@H](NC(=O)[C@H](CCCCN)NC(=O)[C@H](C)NC(=O)[C@H](Cc1ccccc1)NC(=O)[C@H](CCCCN)NC(=O)[C@H](CCCCN)NC(=O)[C@H](C)NC(=O)[C@H](Cc1ccccc1)NC(=O)[C@H](CCCCN)NC(=O)[C@H](C)NC(=O)[C@H](Cc1ccccc1)NC(=O)[C@H](CCCCN)NC(=O)[C@H](CCCCN)NC(=O)[C@H](C)NC(=O)[C@H](Cc1ccccc1)NC(=O)[C@H](CCCCN)NC(=O)[C@H](C)NC(=O)[C@H](Cc1ccccc1)NC(=O)[C@@H](N)CCCCN)C(C)C)C(=O)N[C@@H](CCC(N)=O)C(=O)N[C@@H](CCCNC(=N)N)C(=O)N[C@@H](CCCNC(=N)N)C(=O)N[C@@H](Cc1ccccc1)C(=O)N[C@@H](C)C(=O)O (H-KFAKFAKKFAKFAKKFAKVARLQRRFA-OH)
IC50 ([1]; 4 h): 0.8 ± 0.16 µM | HA50 [2]: Not hemolytic

RARLQRRSARLSAK
IC50 of cytotoxicity (MTT), MDA-MB-435S breast cancer cells, 120 h [3]: 2.4 µM

HAHLQRRSARLSAK [H1AHLQRRSARLSAK14]
IC50 of cytotoxicity (MTT), MDA-MB-435S breast cancer cells, 120 h [3]: 4.7 µM

RARLQRRSARL [R1ARLQRRSARL11]
IC50 of cytotoxicity (MTT), MDA-MB-435S breast cancer cells, 120 h [3]: 5.4 µM

RVRLQRRSARLSAK [R1VRLQRRSARLSAK14]
IC50 of cytotoxicity (MTT), MDA-MB-435S breast cancer cells, 120 h [3]: 1.9 µM

HARLQRRSARLSAK [H1ARLQRRSARLSAK14]
IC50 of cytotoxicity (MTT), MDA-MB-435S breast cancer cells, 120 h [3]: 3.2 µM

KDEPQRRSARLSAK [F3-14 mer fragment]
IC50 of cytotoxicity (MTT), MDA-MB-435S breast cancer cells, 120 h [3]: 11.1 µM

RARLQRRSARLS [R1ARLQRRSARLS12]
IC50 of cytotoxicity (MTT), MDA-MB-435S breast cancer cells, 120 h [3]: 6.5 µM

KFAKFAKKFAKFAKKFAKRARLQRRSARLSAK [EP-302]
IC50 of cytotoxicity (MTT), MDA-MB-435S breast cancer cells, time course, 30 minutes [4]: 2.3 µM | IC50 of cytotoxicity (MTT), A549 (Lung) cells, 6 h [5]: 4.3 µM | IC50 of cytotoxicity (MTT), A549 (Lung) cells, 24 h [5]: 2.4 µM | IC50 of cytotoxicity (MTT), DU145 (Prostate) cells, 6 h [5]: 3.1 µM | IC50 of cytotoxicity (MTT), DU145 (Prostate) cells, 24 h [5]: 5.1 µM | IC50 of cytotoxicity (MTT), Daudi (NHL) cells, 6 h [5]: 3.2 µM | IC50 of cytotoxicity (MTT), Daudi (NHL) cells, 24 h [5]: 2.5 µM | IC50 of cytotoxicity (MTT), HL60 (Acute Myeloid Leukemia) cells, 24 h [5]: 0.5 µM | IC50 of cytotoxicity (MTT), HT 29 (Colon) cells, 6 h [5]: 45.8 µM | IC50 of cytotoxicity (MTT), HT 29 (Colon) cells, 24 h [5]: 26.2 µM | IC50 of cytotoxicity (MTT), HT 116(Colon) cells, 6 h [5]: 6.7 µM | IC50 of cytotoxicity (MTT), HT 116(Colon) cells, 24 h [5]: 4.8 µM | IC50 of cytotoxicity (MTT), K562 (Chronic Myeloid Leukemia) cells, 24 h [5]: 2.8 µM | IC50 of cytotoxicity (MTT), LoVo (Colon) cells, 6 h [5]: 14.1 µM | IC50 of cytotoxicity (MTT), LoVo (Colon) cells, 24 h [5]: 12.5 µM | IC50 of cytotoxicity (MTT), MCF-7 (Breast) cells, 6 h [5]: 5.5 µM | IC50 of cytotoxicity (MTT), MCF-7 (Breast) cells, 24 h [5]: 6.4 µM | IC50 of cytotoxicity (MTT), MDA-MB-231 (Breast) cells, 6 h [5]: 4.6 µM | IC50 of cytotoxicity (MTT), MDA-MB-231 (Breast) cells, 24 h [5]: 3.6 µM | IC50 of cytotoxicity (MTT), MDA-MB-435S (Breast) cells, 6 h [5]: 1.4 µM | IC50 of cytotoxicity (MTT), MDA-MB-435S (Breast) cells, 24 h [5]: 1.7 µM | IC50 of cytotoxicity (MTT), MV4-11(Acute Myeloid Leukemia) cells, 24 h [5]: 0.5 µM | IC50 of cytotoxicity (MTT), MiaPaCa (Pancreas) cells, 6 h [5]: 2.1 µM | IC50 of cytotoxicity (MTT), MiaPaCa (Pancreas) cells, 24 h [5]: 1.9 µM | IC50 of cytotoxicity (MTT), OVCAR-3 (Ovary) cells, 6 h [5]: 5.2 µM | IC50 of cytotoxicity (MTT), PC-3 (Prostate) cells, 6 h [5]: 3.3 µM | IC50 of cytotoxicity (MTT), PC-3 (Prostate) cells, 24 h [5]: 3.2 µM | IC50 of cytotoxicity (MTT), SKOV-3 (Ovary) cells, 6 h [5]: 5.1 µM | IC50 of cytotoxicity (MTT), SKOV-3 (Ovary) cells, 24 h [5]: 5.2 µM | IC50 of cytotoxicity (MTT), CHO (Hamster Ovary) cells, 6 h [6]: 3.1 µM | IC50 of cytotoxicity (MTT), CHO (Hamster Ovary) cells, 24 h [6]: 3.7 µM | IC50 of cytotoxicity (MTT), MDA-MB-435S breast cancer cells, 4 h [7]: 0.9 µM

KFAKFAKKFAKFAKKFAKKDEPQRRSARLSAK [EP-301]
IC50 of cytotoxicity (MTT), MDA-MB-435S breast cancer cells, time course, 30 minutes [4]: 48 µM | IC50 of cytotoxicity (MTT), MDA-MB-435S breast cancer cells, time course, 6 h [4]: > 40 µM | IC50 of cytotoxicity (MTT), MDA-MB-435S breast cancer cells, time course, 24 h [4]: 12 µM | IC50 of cytotoxicity (MTT), MDA-MB-435S breast cancer cells, 4 h [7]: 64.8 µM
